T1: human AREG (Homo sapiens, UniProt P15514)
T1 sequence (P15514 101-198 limits assumed): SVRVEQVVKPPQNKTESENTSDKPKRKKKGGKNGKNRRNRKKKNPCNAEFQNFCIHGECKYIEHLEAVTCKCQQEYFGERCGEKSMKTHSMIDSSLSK

T2: murine AREG (Mus musculus, UniProt P31955)
T2 construct: purchased Peprotech
T2 sequence (P31955 94-191 limits assumed): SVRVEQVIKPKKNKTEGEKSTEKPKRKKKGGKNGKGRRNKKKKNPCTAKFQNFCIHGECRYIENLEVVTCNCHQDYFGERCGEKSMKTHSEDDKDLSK

B1: AR37: anti-AREG monoclonal antibody from AREG knockout mice; heavy chain SEQ ID NO: 62, light chain SEQ ID NO: 93 (antibody)
heavy: EVQLVESGGDLVKPGGSLKLSCAASGFTFSNSGMXWFRLTPDKRLEWVATISSGSTYTFYPDTVKGRFIISRXNAKNTLYLQMSSLKSEDTAIYYCVREIWPVWGAGTTITVSSAKT
light: QAVVTQESALSTSPGETVTLTCRSSTGAVTTSNYANWVQEKPDHLFTGLLGDTDNRPPGVPARFSGSLLGDKAALTITGAQTEDEAIYFCALWYSNHWVFGGGTKLTVL
modifications: not fully specified; AR37 heavy chain IgG complete amino acids coding sequence; (35)..(35) Xaa can be any naturally occurring amino acid; (73)..(73) Xaa can be any naturally occurring amino acid; AR37 light chain (IgG) complete amino acids coding sequence
B2: AR30: anti-AREG monoclonal antibody; heavy chain SEQ ID NO: 2, light chain SEQ ID NO: 16 (antibody, V domains shown)
VH: EVQLQQSGAELVRSGASVKLSCTASGFNIKDSYMHWVKQRPEQGLEWIGWVDPDNGDTEYAPEFQGRATLTADTFSSTAYLQLTSLTSEDTAVYYCNAPSTYGHYGFAYWGQGTLVTVSA
VL: DIVMTQAAPSVPVTPGESVSISCRSSKSLLHSNGKAYLYWFLQRPGQSPQLLIYRMSNLASGVPDRFSGSGSGTAFTLRISRVEAEDVGVYYCMQHLEYPLTFGAGTKLELKR
modifications: AR30 heavy chain (IgG) complete amino acids coding sequence; AR30 light chain (kappa) complete amino acids coding sequence

Legend:
MCF10A cells = test: MTS proliferation assay of MCF10A cells; assay type: cell-based, human; conditions: 72 h, absence or presence of AREG, relatively high mAb concentrations
Experimental: Proliferation assays using MTS were performed on MCF10A cells (1,000 cells per well). C ells were plated on the day before and treated for 72 h with the indicated mAbs (1, 5, 10, 20 or 50 ug/mL). Increasing concentrations of the indicated mAbs (either alone or in combination with AREG) were used in medium supplemented with 1% serum and AREG (either at 10 or 100 ng/mL).

EGFR = test: AREG-induced EGFR phosphorylation in HeLa cells (immunoblot); assay type: cell-based, human; conditions: for AREG-induced phosphorylation of EGFR: AREG 100 ng/ml, mAb 0.1-50 μg/ml, FIG. 10A
Experimental: FIGS. 6A-6F illustrate AR30, an anti-AREG monoclonal antibody, that inhibits auto-phosphorylation of EGFR. FIG. 6A is a photograph of a Coomassie blue staining of an acrylamide gel showing a purified fraction of AREG isolated from bacteria and purified on a NiNTA column. The molecular weight marker lane indicates a 15 kilodalton band; FIG. 6B, cells were seeded in a 24 well plate, washed and incubated with increasing concentrations of the purified TRX-AREG fusion protein (8.5, 85, 850, 8500 ng/ml). […] Following a 10-min long incubation, the cells were lysed and cleared extracts immunoblotted (IB) with an anti-phosphotyrosine antibody (PY-99); FIG. 6C, 96 well plates were coated with the indicated ligands (0.1 μg/ml), and then incubated for 3 hours with three different mAbs specific to AREG. Thereafter, wells were incubated for two hours with an anti-mouse antibody conjugated to HRP, followed by a 30 minutes incubation with ATBS. […] Serum from non-immunized mice was used as a negative control; FIG. 6E, HeLa cells were pre-incubated with (or without) mAb AR30 (20 μg/mL) and increasing concentrations of AREG. Thereafter, whole cell lysates were immunoblotted (IB) using an antibody specific to the phosphorylated form of EGFR (tyrosine 1068) or an antibody to EGFR; and FIG. 6F, HeLa cells were incubated with (or without) AREG (100 ng/mL) in the presence of increasing concentrations of mAb AR30 (5, 10, 20 and 50 μg/mL). Thereafter, cells were lysed and cleared extracts immunoblotted (IB) using the indicated antibodies.
FIG. 10A illustrates that anti-AREG mAbs inhibit ligand-induced activation of EGFR. HeLa cells were incubated with (or without) AREG (100 ng/ml) in the presence of increasing concentrations of mAb AR30, mAb AR 37 or mAb AR558 (0.1, 0.2, 0.5, 0.75, 1.5, 3.5, 6.25, 12.5, 25 and 50 μg/ml). Thereafter, cells were lysed and cleared extracts immunoblotted (IB) using the indicated antibodies, including an antibody specific to the phosphorylated (active) for of EGFR (pEGFR).

human AREG [1] = molecular target: T1, human AREG; test: Antigenic determinant comparison of anti-AREG mAbs; assay type: binding; conditions: data not shown
[2] = system: Cal-27 human head and neck cancer cells; test: Cal-27 head and neck tumor xenograft in nude mice; assay type: in vivo; conditions: Cal-27 tumors, 300 μg per injection intraperitoneally twice a week
Experimental: Female nude mice were inoculated subcutaneously with Cal-27 human head and neck cancer cells (2×10^6). Once tumors became palpable (5-7 days) mice were randomized and intraperitoneally injected with saline (Control), or with anti-AR mAbs: AR30, AR37 or AR558 (each at 300 μg per injection). Mice were treated with mAbs twice a week and tumor volume was followed. Shown are averages and SD values from at least 5 mice per group.
To test the ability of anti-AREG antibodies to reduce growth of human tumor cells implanted in immunocompromised mice, Cal 27 tumor cells were used which were inoculated subcutaneously and randomized for treatment after tumors became palpable. […] Furthermore, studies testing pairs of two mAbs illustrate their enhanced anti-tumor activities (data not shown), this can be attributed to the fact that the mAbs bind to distinct antigenic determinants of amphiregulin.

murine AREG = molecular target: T2, murine AREG; test: ELISA on plates coated with murine AREG; assay type: binding
Experimental: FIG. 9A—96 well plates were coated with the indicated ligands (400 ng/mL), including a murine HB-EGF fused to thioredoxin. Plates were incubated for 2 hours with 3 different mAbs specific to AREG (as indicated). Thereafter, wells were incubated for two hours with an anti-mouse antibody conjugated to HRP, followed by a 30 minute incubation with ATBS. Signals were determined using an ELISA reader (set at 415 nm). […] Thereafter, wells were incubated for two hours with an anti-mouse antibody conjugated to HRP, followed by a 30-min incubation with ATBS. Signals were determined using an ELISA reader (set at 415 nm). […] 96-well plates were coated with decreasing concentrations (400, 200, 100, 50, 25 and 10 ng/mL) of the indicated 3 ligands, and then incubated for 2 hours with three different mAbs specific to AREG (AR30, AR37 and AR558) at […]. Thereafter, wells were incubated for two hours with an anti-mouse antibody conjugated to HRP, followed by a 20-min incubation with ATBS. Signals were determined using an ELISA reader (set at 420 nm).

human AREG [3] = molecular target: T1, human AREG; test: Plasmon resonance and immunoblotting of EGF-family ligands with AR30; assay type: binding
Experimental: FIGS. 6A-6F illustrate AR30, an anti-AREG monoclonal antibody, that inhibits auto-phosphorylation of EGFR. FIG. 6A is a photograph of a Coomassie blue staining of an acrylamide gel showing a purified fraction of AREG isolated from bacteria and purified on a NiNTA column. The molecular weight marker lane indicates a 15 kilodalton band; FIG. 6B, cells were seeded in a 24 well plate, washed and incubated with increasing concentrations of the purified TRX-AREG fusion protein (8.5, 85, 850, 8500 ng/ml). […]
SPR was performed on a BIAcore 3000 instrument (BIAcore, Uppsala, Sweden). […] The net signal was obtained by subtracting the blank signal (plain dextran matrix) from the signal recorded from the immobilized surface. The association phase for analyte binding to all ligands was followed for 4 minutes, and dissociation phases were monitored for 3 minutes. […] The response was monitored as a function of time (sensorgram). […]
To functionally characterize a selected anti-AREG mAb, its specificity was tested using an Enzyme-Linked Immunosorbent Assay (ELISA) assay covered with different ligands. […] The AR30 affinity to the different ligand was assessed by Surface plasmon resonance (SPR).

MLS ovarian cancer cells = test: MLS ovarian tumor xenograft in nude mice; assay type: in vivo; conditions: MLS tumors
Experimental: FIG. 7A, female nude mice (6 weeks old) were inoculated subcutaneously with MLS ovarian cancer cells (2×10^6 per animal). Once tumors became palpable, mice were randomized into two groups. Eleven mice were injected intraperitoneally with an anti-AREG mAb (AR30; 200 μg/mouse; twice a week, on days: 8, 11, 14, 17, and 21). The control group also included 11 mice. Shown are means±S.D. values; FIG. 7B, female nude mice (6 weeks old) were inoculated subcutaneously with MLS ovarian cancer cells (2×10^6 per animal). Once tumors became palpable, mice were randomized into four groups. One group (8 mice) was injected intraperitoneally with the AR30 mAb (100 μg/mouse twice a week, on days: 8, 14, 17, 21, 24 and 28). Another group (8 mice) was treated with cisplatin (5 mg/kg; on days 8 and 21). The fourth group was treated with a combination of mAb AR30 and cisplatin. The control group included 12 mice; and FIG. 7C, the indicated MLS tumors were excised, and their average weights determined. Representative tumors were photographed.
All animal procedures were approved by the Weizmann Institute of Science's review board. Female athymic NCr-nude mice (6 weeks old) were inoculated subcutaneously with 2×10^6 human ovarian MLS cancer cells. Once tumors became palpable (5-7 days), the mice were randomized into groups and injected intraperitoneally at the indicated time points with the indicated monoclonal antibodies, chemotherapy or the combination. Tumor volumes were monitored twice a week, and body weights were measured once a week.

Row | Molecule | inhibition of proliferation (MCF10A cells) | AREG-induced phosphorylation of EGFR (EGFR) | antigenic determinant targeted (human AREG [1]) | tumor growth [2] | recognition of murine AREG (ELISA) (murine AREG; ligand coated at 400 ng/mL, FIG. 9A) | recognition of murine AREG (ELISA) (murine AREG; ligand coated at 400-10 ng/mL, FIG. 9C) | effect of AREG on receptor phosphorylation (EGFR; AR30 5-50 μg/mL, FIGS. 6E-6F) | downstream signaling to ERK (phosphorylated ERK) (EGFR; data not shown) | binding of AR30 with human AREG (human AREG [3]) | recognition of other EGFR ligands (human AREG [3]) | tumor growth (MLS ovarian cancer cells; AR30 100 μg/mouse twice a week, cisplatin 5 mg/kg, FIG. 7B) | tumor growth (MLS ovarian cancer cells; antibodies injected into the peritoneum, six weeks, data not shown) | anti-tumor effect compared with cetuximab (MLS ovarian cancer cells; six weeks, data not shown)
1 | B1 | Moderate inhibition | low concentrations of the antibodies were sufficient for blocking | engages a different determinant of human AREG | comparably inhibit tumor growth | recognized the murine molecule better than the other two mAbs tested | recognised the murine molecule | – | – | – | – | – | – | –
2 | B2 | Moderate inhibition | low concentrations of the antibodies were sufficient for blocking | engages a different determinant of human AREG | comparably inhibit tumor growth | – | – | only partially reduced | insufficient for blocking downstream signaling to ERK | high affinity binding | recognized no other EGFR ligand, except for the human form of HB-EGF | only mildly inhibited | partly inhibited tumor growth | at least as effective as cetuximab

Reference: patent US10640556B2, “Anti amphiregulin antibodies, compositions comprising same and uses thereof” (Yeda Research and Development Co. Ltd., priority 2015, dated 2020)
